According to US20150299328A1:
pEC50: −log10 of the molar value.

Biological target: HIR extracellular domain (ECD) (human) (UniProt P06213)
Assay: ELISA, HIR ECD plated

- pEC50: 9.12
Substance: CHO-derived HIRMAb-IDUA fusion protein (antibody)
